Results on 36 molecules are retold here after patent US20090297535A1 (Ablynx, published 2009).

Positions count from the first letter of the chain named.

B1: PMP23H2 (VHH)
VHH: AVQLVDSGGGLVQPGGSLRLSCAASGSIFSRLAMDWYRQAPGKQRELVASIAVSGTTMLDDSVKGRFTISRDNAENTVYLQMNSLKPEDTAVYYCMAFDGYTGSDYWGRGTQVTVSS
notes: Monovalent Nanobody
B2: PMP10C4 (VHH)
VHH: AVQLVDSGGGLVQAGGSLRLSCAASGRSFSNYHMVWFRQAPGKEREFVAAASGSTSSTYYADSVKGRFTISRDNAKNTVYLQMNSLKPEDTAVYYCAAVAGLLLPRVAEGMDYWGKGTLVTVSS
notes: Monovalent Nanobody
B3: PMP7H3 (VHH)
VHH: DVQLVESGGGLVQPGGSLRLSCAASGFTLDYYGVGWFRQAPGKEREGVSCISSSDGDTYYADSVKGRFTISRDNAKNTVYLQMNSLKPEDTAVYYCATDLSDYGVCSRWPSPYDYWGQGTQVTVSS
notes: Monovalent Nanobody
B4: PMP9A9 (VHH)
VHH: B3 VHH with D1Q, T28S, I51T
notes: Monovalent Nanobody
B5: PMP22E3 (VHH)
VHH: QVQLVESGGGLVQPGGSLRLSCAASGFTLDDSAIGWFRQAPGKEREGVSCISSSDGDTYYDDSVKGRFTISRDNVKNMVYLQMNSLKPEDTAVYFCAIDLSDYGVCSKWPSPYDYWGQGTQVTVSS
notes: Monovalent Nanobody
B6: PMP21E12 (VHH)
VHH: AVQLVESGGGLVQPGGSLRLSCAASGSITSINPMGWYRQAPGKQRELVARIHGSITNYADSVKGRFTISRDIAKNTVYLQMNSLKPEDTAVYYCNARRWGYDYWGQGAQVTVSS
notes: Monovalent Nanobody
B7: PMP21C12 (VHH)
VHH: B6 VHH with S30G, V77A
notes: Monovalent Nanobody
B8: PMP21C2 (VHH)
VHH: QVQLVESGGGLVQPGGSLRLSCAASEYITSINPMAWYRQAPGKQRDLVARIFGGGSTNYADSVKGRFTISRDIAKNTVSLQMNSLKPEDTAVYYCNARRWGYDYWGQGTQVTVSS
notes: Monovalent Nanobody
B9: PMP17B11 (VHH)
VHH: QVQLVESGGGLVQAGGSLRLSCAASGPTFSTYAMGWFRQAPGKEREFVAAISWSGANTYYADSVKGRFTISRDNAKNTVYLRMNSLKPEDTAAYYCAASAIIEGFQDSIVIFSEAGYDYWGQGTQVTVSS
B10: PMP21B4 (VHH)
VHH: QVQLVESGGGLVQAGDSLRVACAASGRTFSIDAMAWFRQAPGKEREFVSTMNWSTGATYYADSVKGRFTSSRDNAKSTSYLQMNSLKPEDTAVYYCAAARGLLIATDARGYDYWGQGTQVTVSS
notes: Monovalent Nanobody
B11: PMP6B7 (VHH)
VHH: QVQLVESGGGLVQAGGSLRLSCAASGGTFSAFPMGWFRQAPGKERKFVAGISQSGGSTHYSDSVKGRFTISRENAKNTVYLQMNSLKPEDTAVYYCAARGRTLALRNYAYTTEVGYDDWGQGTQVTVSS
notes: Monovalent Nanobody
B12: PMP14G1 (VHH)
VHH: B11 VHH with Q3K, V5E, K46E, R72K, R101G
notes: Monovalent Nanobody
B13: PMP17D7 (VHH)
VHH: B11 VHH with Q1A, E6D, K46E, R72K
notes: Monovalent Nanobody
B14: PMP14G11 (VHH)
VHH: B11 VHH with A31S, E44G, K46E
notes: Monovalent Nanobody
B15: PMP12C5 (VHH)
VHH: B11 VHH with Q1D, S30T, A31S, F32Y, H59A, N77T, A104F, N107G
notes: Monovalent Nanobody
B16: PMP17G7 (VHH)
VHH: B11 VHH with Q3K, V5E, A31S, F32Y, K46E, A49T, H59A, L103I
notes: Monovalent Nanobody
B17: PMP12H3 (VHH)
VHH: B11 VHH with Q1A, E6D, S30T, A31S, F32Y, H59A, N77T, A104F, N107D
notes: Monovalent Nanobody
B18: PMP17B5 (VHH)
VHH: B11 VHH with V79I
notes: Monovalent Nanobody
B19: PMP14A8 (VHH)
VHH: B11 VHH with Q1E, A31S, S85N
notes: Monovalent Nanobody
B20: PMP14E9 (VHH)
VHH: B11 VHH with Q1A, K46E, R72K, N77S
notes: Monovalent Nanobody
B21: PMP14E1 (VHH)
VHH: B11 VHH with G27R, A31S, F32Y, H59A, N77S, G100D, R101K, N107D, E113D
notes: Monovalent Nanobody
B22: PMP9F9 (VHH)
VHH: B11 VHH with Q1A, A31S, K43E, E44K, K46E, K76R
notes: Monovalent Nanobody
B23: PMP6E9 (VHH)
VHH: B11 VHH with Q1E, G27R, A31S, F32Y, G55S, G56S, H59A, N107D
notes: Monovalent Nanobody
B24: PMP10A6 (VHH)
VHH: QVQLVESGGGLVQAGGSLRLSCASSGRTFSSYVMGWFRQTPGKEREFVSTINWSGSNGYYADSVKGRFTISRDNAKNTVYLQMNNLKPEDTAVYYCAASAGGFLVPRVGQGYDYWGQGTQVTVSS
notes: Monovalent Nanobody
B25: PMP13H6 (VHH)
VHH: B24 VHH with Q3K, V5E, G58K, N85S
notes: Monovalent Nanobody
B26: PMP6D5 (VHH)
VHH: QVQLVESGGGLVQAGGSLRLSCAASGRTFSPYTMGWFRQPPGKVREFVGRINWSGIRNYADSVKGRFTISRDNNNNTVYLQMNRLKPEDTAVYYCAAASQSGSGYDSWGQGTQVTVSS
B27: PMP20G9 (VHH)
VHH: B26 VHH with M34V
notes: Monovalent Nanobody
B28: PMP21A7 (VHH)
VHH: B26 VHH with Q1A, G16S, R57T, N75K, Q100R
notes: Monovalent Nanobody
B29: PMP13D8 (VHH)
VHH: B26 VHH with Q3K, V5E, G16S, F29S, R57T, N75K, A97S, S101V
notes: Monovalent Nanobody
B30: PMP13A1 (VHH)
VHH: B26 VHH with Q1A, E6D
notes: Monovalent Nanobody
B31: PMP20F4 (VHH)
VHH: B26 VHH with Q100R
notes: Monovalent Nanobody
B32: PMP6G10 (VHH)
VHH: QVQLVESGGGLAQAGGSLRLSCVVSGRTFSPYTIGWFSQRPGKEREWVATIIGSDRSTDLDGDTYYADSVRGRFTISRNDAKNTVSLQMNSLKPEDSAVYYCALTAKGYVFTDNEYDYWGQGTQVTVSS
notes: Monovalent Nanobody
B33: PMP20D2 (VHH)
VHH: AVQLVESGGGLVQPGGSLRLSCAASGSISRFNIMGWYRQAPGKQRELVADITNRGTTNYADSVKGRFTISRDNTKNTVYLQMNSLKPDDTAVYYCHTYYPTTGFDDWGQGTQVTVSS
notes: Monovalent Nanobody
B34: PMP14G4 (VHH)
VHH: AVQLVDSGGGLVQAGGSLRLSCAASGRTFSSYPMGWFRQGPGKERKFVAGISQSGVGTAYSDSVKGRFTISRENAKNTVYLQMNSLKPEDTAVYYCAARDKTLALRDYAYTTDVGYDDWGQGTQVTVSS
notes: Monovalent Nanobody
B35: NC3 (VHH)
VHH: EVQLVESGGGLVQPGGSLRLSCAASGNIAAINVMNWYRQAPGTQREFVAAITSGGRKNYADSVKGRFTISRDNAKNTVHLQMNSLKPEDTAVYYCNADAPLASDDDVAPADYWGQGTQVTVSS
notes: Monovalent Nanobody
B36: NC6 (VHH)
VHH: EVQLVESGGGLVQAGGSLRLSCAASGPTFSSYAMGWFRQAPGKDREFVAAISSNGGSTRYADSVKGRFTISRDSAKNTAYLQMNSLKLEDTAVYYCAADETTGWVQLADFRSWGQGTQVTVSS
notes: Monovalent Nanobody

In the first test the target is T1, recombinant human IL6 (human, UniProt P05231 30-212).
T1 construct: Amine-coupled to a CM5 chip in the Biacore assay; used biotinylated in the Alphascreen assays; also called interleukin-6; biotinylated human IL6
The experiment in a line: SPR, Biacore 3000; IL6 amine-coupled on CM5 chip, periplasmic extract injected. On the procedure:
Off-rate analysis of Nanobodies binding to IL6 was done by surface plasmon resonance on a Biacore 3000 instrument. Recombinant human IL6 was covalently bound to a CM5 sensor chip via amine coupling at a density of ˜500 RU. Remaining reactive groups were inactivated. Periplasmic extracts prepared from E. coli cells expressing anti-IL6 Nanobodies were diluted 10 or 15-fold and injected for 4 min to allow for binding to IL6 immobilized on the chip. Buffer without Nanobody was sent over the chip for 30 min to allow for spontaneous dissociation of bound Nanobody. The dissociation phase was used to calculate the koff values for each individual Nanobody (table B-1).
(In general: SPR reads the build-up and loss of mass on a sensor chip optically.)
A word on the koff: it is the rate constant with which the complex falls apart. For the molecule B1, the koff turned out to be 0.0016 s⁻¹.

For B2, the koff was 0.00082 s⁻¹. For B3, the koff came to 0.00309 s⁻¹.

As for B4, the koff was determined as 0.00605 s⁻¹. B5: the koff is 0.00519 s⁻¹.

Take B6: the koff is 0.00222 s⁻¹.

For the molecule B7, the koff came out at 0.000897 s⁻¹.

For B8, the koff is 0.00116 s⁻¹.

For the molecule B9, the koff came to 0.00133 s⁻¹.

In the case of B10, the koff was 0.000658 s⁻¹. Consider B11, for which the koff was determined as 0.000199 s⁻¹. For B12, the koff came to 0.00079 s⁻¹. On the same count and under the same terms, then B13, with 0.00116 s⁻¹; and B14, with 0.000229 s⁻¹.

As to B15, the koff is 0.000211 s⁻¹.

Regarding B16, the koff amounted to 0.000669 s⁻¹. As to B17, the koff was 0.000243 s⁻¹. Turning to B18, the koff was 0.00015 s⁻¹. For B19, the koff was found to be 0.000131 s⁻¹.

Consider B20, for which the koff came to 0.000531 s⁻¹.

For the molecule B21, the koff amounted to 0.00057 s⁻¹. Turning to B22, the koff came out at 0.00019 s⁻¹. B23: the koff is 0.000631 s⁻¹. Same read-out and setting: next, B24: 0.00104 s⁻¹. As to B25, the koff amounted to 0.00189 s⁻¹. On to B26, for which the koff amounted to 0.000511 s⁻¹. As to B27, the koff came out at 0.000318 s⁻¹. Take B28: the koff stood at 0.000526 s⁻¹. With B29, the off-rate constant (koff) came to 0.000251 s⁻¹. Turning to B30, the koff came out at 0.000396 s⁻¹. The same measure, in the same setting: then B31, with 0.000195 s⁻¹. Regarding B32, the koff is 0.000433 s⁻¹. Same read-out and setting: next, B33: 0.000243 s⁻¹; B34: 0.000312 s⁻¹.

Consider B35, for which the koff was 0.00056 s⁻¹. As for B36, the koff is 0.00082 s⁻¹.

For the next test, the target named is T1, recombinant human IL6. The experiment in a line: cell-based or functional assay.
With B2, the “IC50, inhibition of proliferation of the murine hybridoma cell line B9 (B9 assay, cell proliferation normalized)” value was found to be 961 pM. On the same count and under the same terms, next, B9: 702 pM. B10: the “IC50, inhibition of proliferation of the murine hybridoma cell line B9 (B9 assay, cell proliferation normalized)” value was found to be 1860 pM.

For the molecule B24, the “IC50, inhibition of proliferation of the murine hybridoma cell line B9 (B9 assay, cell proliferation normalized)” value is 332 pM.
